Measured values as given in patent US20150099269, “Hybridization- Independent Labeling Of Repetitive DNA Sequence In Human Chromsomes” (University of Massachusetts, published 2015).

Key:
[1] = target: T1, TALE-TelR15 Green-Lysine labelled, no FP (artificial); assay: fixed U2OS cells, compared with the mCherry fusion; details: tags: internal lysines labelled with green dye (Promega), pET30a vector
T1 chain: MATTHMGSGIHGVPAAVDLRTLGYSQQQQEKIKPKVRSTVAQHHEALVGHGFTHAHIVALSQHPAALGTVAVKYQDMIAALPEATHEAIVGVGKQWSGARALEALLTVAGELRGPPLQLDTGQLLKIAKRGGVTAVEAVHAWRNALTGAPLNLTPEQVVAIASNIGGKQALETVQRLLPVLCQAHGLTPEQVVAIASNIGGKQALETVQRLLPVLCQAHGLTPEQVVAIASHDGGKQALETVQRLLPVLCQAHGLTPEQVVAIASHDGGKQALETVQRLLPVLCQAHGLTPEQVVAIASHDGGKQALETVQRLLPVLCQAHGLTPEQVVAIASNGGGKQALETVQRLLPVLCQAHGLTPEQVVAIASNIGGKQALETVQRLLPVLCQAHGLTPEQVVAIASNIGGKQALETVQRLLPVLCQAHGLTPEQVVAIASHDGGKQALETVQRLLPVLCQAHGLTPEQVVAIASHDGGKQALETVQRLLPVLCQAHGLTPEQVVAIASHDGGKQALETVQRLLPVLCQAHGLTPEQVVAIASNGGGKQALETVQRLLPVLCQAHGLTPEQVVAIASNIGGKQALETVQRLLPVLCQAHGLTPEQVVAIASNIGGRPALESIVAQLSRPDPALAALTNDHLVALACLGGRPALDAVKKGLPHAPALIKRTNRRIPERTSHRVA

TALE-TelR15 = target: T2, TALE-TelR15 (artificial); assay: methanol-fixed, 2N HCl treated cells, room temperature; signal correlates with telomere length (HeLa 1.3 higher than HeLa S3); details: tags: fused sfGFP, mTagBFP2, mTFP1, YPet or mCherry (pT7CFE1-His vector)
T2 chain: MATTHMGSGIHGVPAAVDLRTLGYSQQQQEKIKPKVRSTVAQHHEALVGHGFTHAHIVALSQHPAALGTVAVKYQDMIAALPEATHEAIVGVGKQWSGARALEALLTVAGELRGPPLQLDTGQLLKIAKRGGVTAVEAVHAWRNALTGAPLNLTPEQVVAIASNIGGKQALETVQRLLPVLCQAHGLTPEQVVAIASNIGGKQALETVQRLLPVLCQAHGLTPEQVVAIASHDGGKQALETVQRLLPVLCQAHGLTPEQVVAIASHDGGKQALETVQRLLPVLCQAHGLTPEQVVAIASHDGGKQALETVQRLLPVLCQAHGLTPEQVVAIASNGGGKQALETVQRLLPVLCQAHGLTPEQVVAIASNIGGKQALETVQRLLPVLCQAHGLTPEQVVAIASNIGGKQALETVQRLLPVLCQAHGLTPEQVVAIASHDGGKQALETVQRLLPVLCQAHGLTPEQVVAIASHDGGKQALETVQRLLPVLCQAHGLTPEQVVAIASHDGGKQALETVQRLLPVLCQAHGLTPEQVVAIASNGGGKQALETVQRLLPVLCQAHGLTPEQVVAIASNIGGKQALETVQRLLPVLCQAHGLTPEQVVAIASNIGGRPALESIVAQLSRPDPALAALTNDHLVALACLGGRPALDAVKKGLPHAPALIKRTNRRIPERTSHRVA
Method: Cells grown on coverslips were fixed in ice-cold methanol for 10 min at −20° C. All subsequent steps were carried out at room temperature. The fixed cells were incubated with 2N HCl for 5 min and then washed twice with PBS for 5 min each and then incubated with a given TALEColor probe as a 1:10 dilution from the coupled in vitro transcription-translation reactions mixtures for 30 min. The cells were then washed once with PBS for 5 min. Coverslips were mounted in Prolong Antifade (Molecular Probes, Eugene, Oreg.), and images were captured with the fluorescence microscopy system described above.

B1: TelR15 target (dsDNA)
DNA 1: TAACCCTAACCCTAA
DNA 2: TTAGGGTTAGGGTTA
Does B1 bind [1]?
Result: binds

Does B1 bind (TALE-TelR15)?
Result: binds
